± gives the uncertainty stated by the source.
Assay: self-splicing fitness, log relative to wild type (ln ratio); higher = more splicing; Tetrahymena group I intron in knt gene, E. coli kanamycin selection, DiMSum; sequences stand for … in CUCUCU…GGAGGGAAAAGUUAUCAGGCAUGCACCUGGUAGCUAGUCUUUAAACCAAUAGAUUGCAUCGGUUUAAAAGGCAAGACCGUCAAAUUGCGGGAAAGGGGUCAACAGCCGUUCAGUACCAAGUCUCAGGGGAAACUUUGAGAUGGCCUUGCAAAGGGUAUGGUAAUAAGCUGACGGACAUGGUCCUAACCACGCAGCCAAGUCCUAAGUCAACAGAUCUUCUGUUGAUAUGGAUGCAGUUCACAGACUAAAUGUCGGUCGGGGAAGAUGUAUUCUUCUCAUAAGAUAUAGUCGGACCUCUCCUUAAUGGGAGCUAGCGGAUGAAGUGAUGCAACACUGGAGCCGCUGGGAACUAAUUUGUAUGCGAAAGUAUAUUGAUUAGUUUUGGAGUACUCGUGGUCG
How it was run: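 Fitness was computed with DiMSum as the error-weighted combination of replicate fold changes, kanamycin versus none, each normalised to wild type. The library randomised all eight intron nucleotides of the P1ex region, with the intron placed in the knt kanamycin-resistance gene on pET-22b(+) in E. coli BL21(DE3). Six replicate transformations were grown overnight at 37°C or 30°C on LB agar with or without 25 μg/mL kanamycin, plus 100 μg/mL carbenicillin, 50 μM IPTG and 0.2% rhamnose. Pooled colonies were amplicon-sequenced on an Illumina HiSeq 2500.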

Sequence | self-splicing fitness (ln) (37 °C) | self-splicing fitness (ln) (30 °C)
GAAAAGCAAUAUUACGCGAC | 0.397 ± 0.26 | 
GUGGAGCAAUAUUACGGGAC |  | -2.17 ± 0.29
CAUGAGCAAUAUUACGCCGU | -3.36 ± 0.26 | -3.93 ± 0.37
GUCGAGCAAUAUUACGGGAG | -2.4 ± 0.2 | -3.67 ± 0.21
GUUCAGCAAUAUUACGAUCU | 0.0505 ± 0.12 | -0.337 ± 0.095
GAGAAGCAAUAUUACGAUAU | -0.855 ± 0.15 | -2.18 ± 0.16
CUCGAGCAAUAUUACGGCCU | -1.37 ± 0.36 | 
UUAGAGCAAUAUUACGGAAA | -1.72 ± 0.23 | -2.59 ± 0.19
CAACAGCAAUAUUACGGAAG | -0.607 ± 0.061 | -0.947 ± 0.045
CGAGAGCAAUAUUACGUGGU | -3.2 ± 0.37 | 
UCAAAGCAAUAUUACGGCCC | -2.18 ± 0.46 | -3.79 ± 0.47
AAAGAGCAAUAUUACGAUCU | -0.518 ± 0.12 | -1.42 ± 0.12
UAUGAGCAAUAUUACGCGAU | -2.93 ± 0.37 | 
AAGCAGCAAUAUUACGUUUA | -0.691 ± 0.074 | -1.53 ± 0.084
UAAAAGCAAUAUUACGGGCU | -2 ± 0.29 | -2.79 ± 0.23
CAUUAGCAAUAUUACGGAAU | -2.61 ± 0.31 | -2.87 ± 0.29
ACUCAGCAAUAUUACGAAUU | -0.208 ± 0.085 | -0.96 ± 0.089
GGCUAGCAAUAUUACGCUGG |  | -4.2 ± 0.42
AGUUAGCAAUAUUACGUACG | 0.0821 ± 0.19 | -0.205 ± 0.18
ACAGAGCAAUAUUACGAUCC | -1.5 ± 0.34 | -3.76 ± 0.39
CCCUAGCAAUAUUACGGGGG | -3.36 ± 0.3 | -3.85 ± 0.24

Sequence | self-splicing fitness (ln) (37 °C) | self-splicing fitness (ln) (30 °C)
AAGUAGCAAUAUUACGACUA | 0.0263 ± 0.13 | -0.0153 ± 0.098
AGUAAGCAAUAUUACGGACG | -0.415 ± 0.12 | -0.782 ± 0.093
GUGAAGCAAUAUUACGCACC | -1.92 ± 0.34 | 
UACGAGCAAUAUUACGUUAA | -1.57 ± 0.14 | -3.08 ± 0.26
CUGAAGCAAUAUUACGGUUG | 0.139 ± 0.096 | -0.0856 ± 0.068
UCUUAGCAAUAUUACGGCGG | -0.0592 ± 0.13 | -0.64 ± 0.11
CUGUAGCAAUAUUACGGUGA | -2.28 ± 0.24 | -3.22 ± 0.22
UCACAGCAAUAUUACGAUCC | -2.03 ± 0.22 | -3.08 ± 0.2
CUAAAGCAAUAUUACGAGAG | -0.601 ± 0.099 | -1.13 ± 0.075
CUAAAGCAAUAUUACGAGGU | -2.81 ± 0.25 | -4.41 ± 0.24
CGUCAGCAAUAUUACGGUCU | -0.828 ± 0.1 | -0.849 ± 0.079
AGUCAGCAAUAUUACGGGAG | -1.41 ± 0.11 | -3.52 ± 0.15
AGGGAGCAAUAUUACGAGUC |  | -2.9 ± 0.3
CGACAGCAAUAUUACGGGGC | -2.87 ± 0.29 | -3.72 ± 0.29
GGGCAGCAAUAUUACGCUUG | 0.22 ± 0.13 | -0.914 ± 0.088
GAGCAGCAAUAUUACGUCCG | -0.968 ± 0.41 | -0.984 ± 0.3
UAUAAGCAAUAUUACGCCGG | -0.0733 ± 0.18 | -0.545 ± 0.16
GUUUAGCAAUAUUACGAGGG | -2.73 ± 0.34 | -3.76 ± 0.36
CGCAAGCAAUAUUACGAUAG | 0.36 ± 0.092 | -0.276 ± 0.066
ACCCAGCAAUAUUACGCGCU | -1.36 ± 0.11 | -1.91 ± 0.097
